Experimental data from patent US20170072013A1 (MEDINCELL, published 2017).
Square brackets hold non-standard residues; d marks the D form.

T1: human TREK-1 potassium channel expressed in the h-TREK-1/HEK cell line (human, UniProt O95069 1-426)
T1 sequence (looked up): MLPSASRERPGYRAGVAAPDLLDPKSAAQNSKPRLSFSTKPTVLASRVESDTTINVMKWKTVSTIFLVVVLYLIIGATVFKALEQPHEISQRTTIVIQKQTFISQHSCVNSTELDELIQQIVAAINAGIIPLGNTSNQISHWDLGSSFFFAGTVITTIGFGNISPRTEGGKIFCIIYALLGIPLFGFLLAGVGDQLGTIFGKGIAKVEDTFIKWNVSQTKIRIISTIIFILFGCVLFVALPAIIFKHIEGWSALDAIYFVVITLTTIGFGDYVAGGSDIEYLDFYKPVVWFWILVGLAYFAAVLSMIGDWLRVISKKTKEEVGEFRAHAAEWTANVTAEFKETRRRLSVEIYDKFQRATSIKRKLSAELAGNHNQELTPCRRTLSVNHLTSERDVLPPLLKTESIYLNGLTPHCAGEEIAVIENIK

B1: Analog 14 (SEQ ID NO:15), Ac-rlawsvaipaswrplpa-NH2 (peptide)
peptide: Ac-[dR][dL][dA][dW][dS][dV][dA][dI][dP][dA][dS][dW][dR][dP][dL][dP][dA]-NH2
SMILES: CC[C@@H](C)[C@@H](NC(=O)[C@@H](C)NC(=O)[C@H](NC(=O)[C@@H](CO)NC(=O)[C@@H](Cc1c[nH]c2ccccc12)NC(=O)[C@@H](C)NC(=O)[C@@H](CC(C)C)NC(=O)[C@@H](CCCNC(=N)N)NC(C)=O)C(C)C)C(=O)N1CCC[C@@H]1C(=O)N[C@H](C)C(=O)N[C@H](CO)C(=O)N[C@H](Cc1c[nH]c2ccccc12)C(=O)N[C@H](CCCNC(=N)N)C(=O)N1CCC[C@@H]1C(=O)N[C@H](CC(C)C)C(=O)N1CCC[C@@H]1C(=O)N[C@H](C)C(N)=O
B2: Analog 2 (SEQ ID NO:3), Ac-APLPRWSGPIGVSWGLR-NH2 (peptide)
peptide: Ac-APLPRWSGPIGVSWGLR-NH2
B3: Analog 15 (SEQ ID NO:20), c(rlGwsvGipGswrplpa) (peptide)
peptide: cyclo([dR][dL]G[dW][dS][dV]G[dI][dP]G[dS][dW][dR][dP][dL][dP][dA])
SMILES: CC[C@@H](C)[C@H]1NC(=O)CNC(=O)[C@@H](C(C)C)NC(=O)[C@@H](CO)NC(=O)[C@@H](Cc2c[nH]c3ccccc23)NC(=O)CNC(=O)[C@@H](CC(C)C)NC(=O)[C@@H](CCCNC(=N)N)NC(=O)[C@@H](C)NC(=O)[C@H]2CCCN2C(=O)[C@@H](CC(C)C)NC(=O)[C@H]2CCCN2C(=O)[C@@H](CCCNC(=N)N)NC(=O)[C@@H](Cc2c[nH]c3ccccc23)NC(=O)[C@@H](CO)NC(=O)CNC(=O)[C@H]2CCCN2C1=O
B4: Analog 3 (SEQ ID NO:4), Ac-rlGwsvGipGswrplpa-NH2 (peptide)
peptide: Ac-[dR][dL]G[dW][dS][dV]G[dI][dP]G[dS][dW][dR][dP][dL][dP][dA]-NH2
SMILES: CC[C@@H](C)[C@@H](NC(=O)CNC(=O)[C@H](NC(=O)[C@@H](CO)NC(=O)[C@@H](Cc1c[nH]c2ccccc12)NC(=O)CNC(=O)[C@@H](CC(C)C)NC(=O)[C@@H](CCCNC(=N)N)NC(C)=O)C(C)C)C(=O)N1CCC[C@@H]1C(=O)NCC(=O)N[C@H](CO)C(=O)N[C@H](Cc1c[nH]c2ccccc12)C(=O)N[C@H](CCCNC(=N)N)C(=O)N1CCC[C@@H]1C(=O)N[C@H](CC(C)C)C(=O)N1CCC[C@@H]1C(=O)N[C@H](C)C(N)=O
B5: Analog 13 (SEQ ID NO:14), Ac-APLPRWSAPIAVSWALR-NH2 (peptide)
peptide: Ac-APLPRWSAPIAVSWALR-NH2
B6: Analog 16 (SEQ ID NO:21), c(rlGwsvGipGswrplparlGwsvGipGswrplpa) (peptide)
peptide: cyclo([dR][dL]G[dW][dS][dV]G[dI][dP]G[dS][dW][dR][dP][dL][dP][dA][dR][dL]G[dW][dS][dV]G[dI][dP]G[dS][dW][dR][dP][dL][dP][dA])
SMILES: CC[C@@H](C)[C@H]1NC(=O)CNC(=O)[C@@H](C(C)C)NC(=O)[C@@H](CO)NC(=O)[C@@H](Cc2c[nH]c3ccccc23)NC(=O)CNC(=O)[C@@H](CC(C)C)NC(=O)[C@@H](CCCNC(=N)N)NC(=O)[C@@H](C)NC(=O)[C@H]2CCCN2C(=O)[C@@H](CC(C)C)NC(=O)[C@H]2CCCN2C(=O)[C@@H](CCCNC(=N)N)NC(=O)[C@@H](Cc2c[nH]c3ccccc23)NC(=O)[C@@H](CO)NC(=O)CNC(=O)[C@H]2CCCN2C(=O)[C@@H]([C@H](C)CC)NC(=O)CNC(=O)[C@@H](C(C)C)NC(=O)[C@@H](CO)NC(=O)[C@@H](Cc2c[nH]c3ccccc23)NC(=O)CNC(=O)[C@@H](CC(C)C)NC(=O)[C@@H](CCCNC(=N)N)NC(=O)[C@@H](C)NC(=O)[C@H]2CCCN2C(=O)[C@@H](CC(C)C)NC(=O)[C@H]2CCCN2C(=O)[C@@H](CCCNC(=N)N)NC(=O)[C@@H](Cc2c[nH]c3ccccc23)NC(=O)[C@@H](CO)NC(=O)CNC(=O)[C@H]2CCCN2C1=O
B7: Analog 8 (SEQ ID NO:9), Ac-rlGwsvGipGswrplpaappppadlrdq-NH2 (peptide)
peptide: Ac-[dR][dL]G[dW][dS][dV]G[dI][dP]G[dS][dW][dR][dP][dL][dP][dA][dA][dP][dP][dP][dP][dA][dD][dL][dR][dD][dQ]-NH2
SMILES: CC[C@@H](C)[C@@H](NC(=O)CNC(=O)[C@H](NC(=O)[C@@H](CO)NC(=O)[C@@H](Cc1c[nH]c2ccccc12)NC(=O)CNC(=O)[C@@H](CC(C)C)NC(=O)[C@@H](CCCNC(=N)N)NC(C)=O)C(C)C)C(=O)N1CCC[C@@H]1C(=O)NCC(=O)N[C@H](CO)C(=O)N[C@H](Cc1c[nH]c2ccccc12)C(=O)N[C@H](CCCNC(=N)N)C(=O)N1CCC[C@@H]1C(=O)N[C@H](CC(C)C)C(=O)N1CCC[C@@H]1C(=O)N[C@H](C)C(=O)N[C@H](C)C(=O)N1CCC[C@@H]1C(=O)N1CCC[C@@H]1C(=O)N1CCC[C@@H]1C(=O)N1CCC[C@@H]1C(=O)N[C@H](C)C(=O)N[C@H](CC(=O)O)C(=O)N[C@H](CC(C)C)C(=O)N[C@H](CCCNC(=N)N)C(=O)N[C@H](CC(=O)O)C(=O)N[C@H](CCC(N)=O)C(N)=O

target: T1, human TREK-1 potassium channel …; test: cell-based or functional assay

Q: With B1 as the binder, how does the “IC50 of TREK-1 current inhibition (dose-response, whole cell patch clamp, 0 mV)” value (shortened to “IC50 of TREK-1 current inhibition”) read?
A: 0.004 nM

Q: Which “IC50 of TREK-1 current inhibition” value does the source give for B2 here?
A: 60 nM

Q: How did the “IC50 of TREK-1 current inhibition” value turn out when B3 was run?
A: 0.04 nM

Q: With B4 as the binder, how does the “IC50 of TREK-1 current inhibition” value read?
A: 11.5 nM

Q: What about the “fold higher affinity for TREK-1 channels than spadin, inferred from the IC50 of current inhibition” value of the same binder?
A: 6 fold

Q: How did the “IC50 of TREK-1 current inhibition” value turn out when B5 was run?
A: 0.04 nM

Q: For B6, which “IC50 of TREK-1 current inhibition” value is on record?
A: 0.001 nM

Q: How did the “IC50 of TREK-1 current inhibition” value turn out when B7 was run?
A: 9.95 nM

Q: What about the “fold higher affinity for TREK-1 channels than spadin, inferred from the IC50 of current inhibition” value of the same binder?
A: 6 fold
